# Test results published in patent US20200390902A1, “Antibody-Drug Conjugates Targeted at Human Aspartyl-(Asparaginyl)-B-Hydroxylase (HAAH)” (Panacea Pharmaceuticals, Inc., priority 2017, published 2020).
# T1: HAAH catalytic domain (human, UniProt Q12797)
# T1 sequence: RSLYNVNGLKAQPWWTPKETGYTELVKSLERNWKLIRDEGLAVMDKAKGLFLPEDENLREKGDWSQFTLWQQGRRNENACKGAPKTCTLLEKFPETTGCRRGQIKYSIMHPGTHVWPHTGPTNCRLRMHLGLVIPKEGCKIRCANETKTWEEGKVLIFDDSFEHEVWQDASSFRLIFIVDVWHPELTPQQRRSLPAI
# T2: Human aspartyl (asparaginyl) β-hydroxylase (HAAH) (human, UniProt Q12797)
# T2 sequence: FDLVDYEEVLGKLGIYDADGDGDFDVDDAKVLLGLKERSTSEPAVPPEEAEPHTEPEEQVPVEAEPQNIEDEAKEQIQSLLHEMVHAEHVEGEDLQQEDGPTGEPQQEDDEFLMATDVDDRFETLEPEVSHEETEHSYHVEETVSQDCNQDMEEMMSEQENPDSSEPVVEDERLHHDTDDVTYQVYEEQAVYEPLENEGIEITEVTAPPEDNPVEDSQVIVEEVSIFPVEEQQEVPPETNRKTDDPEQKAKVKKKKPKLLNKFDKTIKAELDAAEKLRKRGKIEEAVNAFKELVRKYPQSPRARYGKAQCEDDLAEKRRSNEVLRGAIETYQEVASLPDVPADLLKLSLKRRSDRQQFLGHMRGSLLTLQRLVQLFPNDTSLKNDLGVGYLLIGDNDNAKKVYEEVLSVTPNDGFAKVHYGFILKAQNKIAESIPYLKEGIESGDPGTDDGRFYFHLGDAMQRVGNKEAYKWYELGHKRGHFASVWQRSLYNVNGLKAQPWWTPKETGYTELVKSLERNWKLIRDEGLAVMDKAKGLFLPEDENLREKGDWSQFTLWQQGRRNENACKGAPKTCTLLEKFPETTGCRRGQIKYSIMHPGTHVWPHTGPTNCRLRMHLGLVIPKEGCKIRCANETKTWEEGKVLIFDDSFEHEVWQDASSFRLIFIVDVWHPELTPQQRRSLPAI
# B1: SNS622-MC-DM1 (antibody, V domains shown)
# VH: QVQLQQSGPGLVKPSQTLSLTCAISGDSVSSNSAAWNWIRQSPSRGLEWLGRTYYRSKWYNDYAVSVKSRITINPDTSKNQFSLQLNSVTPEDTAVYYCARTGYSSSWVVNFDYWGQGTLVTVSS
# VL: QPVLTQSPSASGTPGQRVTISCSGSSSNIGSNYVYWYQQLPGTAPKLLIYKNNQRPSGVPDRFSGSKSGTAASLAISGLQSEDEADYYCAAWDDSLRGYVFGTGTKLTVLG
# modifications: MC-DM1 (maleimidocaproyl-mertansine) on cysteine thiols of reduced disulfide bonds, positions not given; MC-DM1 (maleimidocaproyl-mertansine) on cysteine thiols of reduced disulfide bonds, positions not given
# B2: SNS622-DM1C2 (antibody, V domains shown)
# VH: QVQLQQSGPGLVKPSQTLSLTCAISGDSVSSNSAAWNWIRQSPSRGLEWLGRTYYRSKWYNDYAVSVKSRITINPDTSKNQFSLQLNSVTPEDTAVYYCARTGYSSSWVVNFDYWGQGTLVTVSS
# VL: QPVLTQSPSASGTPGQRVTISCSGSSSNIGSNYVYWYQQLPGTAPKLLIYKNNQRPSGVPDRFSGSKSGTAASLAISGLQSEDEADYYCAAWDDSLRGYVFGTGTKLTVLG
# modifications: MC-DM1 on cysteine thiols of reduced disulfide bonds, positions not given; reaction DAR 10:1, pH 8, final DAR 5.81; MC-DM1 on cysteine thiols of reduced disulfide bonds, positions not given
# B3: SNS622-DM1A1 (antibody, V domains shown)
# VH: QVQLQQSGPGLVKPSQTLSLTCAISGDSVSSNSAAWNWIRQSPSRGLEWLGRTYYRSKWYNDYAVSVKSRITINPDTSKNQFSLQLNSVTPEDTAVYYCARTGYSSSWVVNFDYWGQGTLVTVSS
# VL: QPVLTQSPSASGTPGQRVTISCSGSSSNIGSNYVYWYQQLPGTAPKLLIYKNNQRPSGVPDRFSGSKSGTAASLAISGLQSEDEADYYCAAWDDSLRGYVFGTGTKLTVLG
# modifications: MC-DM1 on cysteine thiols of reduced disulfide bonds, positions not given; reaction DAR 2.5:1, pH 7, final DAR 2.00; MC-DM1 on cysteine thiols of reduced disulfide bonds, positions not given
# B4: SNS622-MC-vc-PAB-DM1 (antibody, V domains shown)
# VH: QVQLQQSGPGLVKPSQTLSLTCAISGDSVSSNSAAWNWIRQSPSRGLEWLGRTYYRSKWYNDYAVSVKSRITINPDTSKNQFSLQLNSVTPEDTAVYYCARTGYSSSWVVNFDYWGQGTLVTVSS
# VL: QPVLTQSPSASGTPGQRVTISCSGSSSNIGSNYVYWYQQLPGTAPKLLIYKNNQRPSGVPDRFSGSKSGTAASLAISGLQSEDEADYYCAAWDDSLRGYVFGTGTKLTVLG
# modifications: MC-vc-PAB-DM1 on cysteine thiols of reduced disulfide bonds, positions not given; reaction DAR 10:1 gives final DAR 6.56 (also made at 2.5:1 and 5:1); MC-vc-PAB-DM1 on cysteine thiols of reduced disulfide bonds, positions not given
# B5: SNS622-MC-PEG4-vc-PAB-DMEA-DUO (antibody, V domains shown)
# VH: QVQLQQSGPGLVKPSQTLSLTCAISGDSVSSNSAAWNWIRQSPSRGLEWLGRTYYRSKWYNDYAVSVKSRITINPDTSKNQFSLQLNSVTPEDTAVYYCARTGYSSSWVVNFDYWGQGTLVTVSS
# VL: QPVLTQSPSASGTPGQRVTISCSGSSSNIGSNYVYWYQQLPGTAPKLLIYKNNQRPSGVPDRFSGSKSGTAASLAISGLQSEDEADYYCAAWDDSLRGYVFGTGTKLTVLG
# modifications: MC-PEG4-vc-PAB-DMEA-duocarmycin on cysteine thiols of reduced disulfide bonds, positions not given; reaction DAR 2.2:1, final DAR 1.92:1; MC-PEG4-vc-PAB-DMEA-duocarmycin on cysteine thiols of reduced disulfide bonds, positions not given
# Experiments:
# HAAH catalytic domain [1] = target: T1, HAAH catalytic domain; test: ELISA on plates coated with HAAH catalytic domain
# Description: The catalytic domain of HAAH (HAAH-cat) is exposed at the surface of HAAH-expressing cancer cells. The binding of SNS622-MC-DM1 at different drug-antibody ratio (DAR) and pH to HAAH-cat was measured using IgG1λ as control. The plates were coated with HAAH by treating with […] HAAH catalytic domain overnight. Following blocking with 1% Non-Fat Dry Milk in PBS for one hour, the plates were incubated for 45 minutes at 37° C. with 11.1 mg/ml IgG1λ; 9.6 mg/ml SNS622; 4.8 mg/ml SNS622-MC-DM1 at DAR 2.5, pH 7.0; 5.9 mg/ml SNS622-MC-DM1 at DAR 2.5, pH8.0; 6.1 mg/ml SNS622-DM1 at DAR 5.0, pH 7.0; 5.7 mg/ml SNS622-MC-DM1 at DAR 5.0, pH8.0; 4.1 mg/ml SNS622-DM1 at DAR 10.0, pH7.0; or 4.4 mg/ml SNS622-MC-DM1 at DAR 10.0, pH8.0. Following 5 PBS rinses the plates were incubated with 1:100 goat anti-human IgG (8)-HRP for 30 minutes at 37° C., Following five PBS rinses TMB substrate was added, and after a 15-minute incubation at room temperature, Stop solution was added to terminate the reactions. The plates were read at 450 nm using a 96-well plate reader (ELx808, BioTek). The binding results are shown below in Table VI
# HAAH catalytic domain [2] = target: T1, HAAH catalytic domain; test: ELISA on plates coated with HAAH catalytic domain; [Protein] 11.1 mg/ml
# H460 lysate = test: ELISA on plates coated with H460 lysate, percent of loading amount bound
# [3] = target: Human aspartyl (asparaginyl) β-hydroxylase (HAAH) (human) (UniProt Q12797)
# [4] = target: Human aspartyl (asparaginyl) β-hydroxylase (HAAH) (human) (UniProt Q12797); remark: listed apart in the source
# [5] = target: Human aspartyl (asparaginyl) β-hydroxylase (HAAH) (human) (UniProt Q12797); remark: listed apart in the source
# [6] = target: Human aspartyl (asparaginyl) β-hydroxylase (HAAH) (human) (UniProt Q12797); remark: listed apart in the source
# [7] = target: T2, Human aspartyl (asparaginyl) …; test: immunoassay on fixed H460 cells; printed as 'binding affinities'
# [8] = target: T2, Human aspartyl (asparaginyl) …; test: cell-based or functional assay
# [9] = target: Human aspartyl (asparaginyl) β-hydroxylase (HAAH) (human) (UniProt Q12797); remark: listed apart in the source
molecule,measurement,setting,value
IgG1λ (non-specific monoclonal antibody),% Binding,HAAH catalytic domain [1],0.01%
same,[Average]*,HAAH catalytic domain [2],< 0.001 mg/mL
same,Percent binding,H460 lysate,< 0.002%
IgG1λ-MC-DM1 (non-specific ADC) (antibody),Percent binding,H460 lysate,< 0.002%
B1,"IC50 of MTS, H460 cells, 72 h",[3],64 nM
same,"LC50 of LDH, H460 cells, 72 h",[3],36 nM
same,"EC50, H460 cell viability, MTS assay, 24 h",[4],15 nM
same,"LDH release, H460 cells, 32 nM, 72 h (× (over untreated H460 cells))",[5],39
same,"MTS assay, MIA-PaCa-2 ASPH cells, 10, 20 or 50 nM, 48 h (% reduction of relative absorbance)",[6],16
same,Kd,[7],~0.1 nM
same,Percent binding,H460 lysate,107%
B2,% Binding,HAAH catalytic domain [1],80.5%
B3,% Binding,HAAH catalytic domain [1],75.1%
B4,"IC50 of MTS, H460 cells, 72 h",[8],123 nM
B5,"EC50, H460 cell viability, MTS assay, 24 h",[4],300 nM
same,"IC50, MOLM-14 cell viability, MTS assay, 24 h",[9],60 nM
same,Kd,[7],~0.5 nM
